Measurements as given in US20060275211A1 (AGENSYS, published 2006).

How the values were obtained:
[1] = target: T1, Tag5-161P2F10B, purified recombinant extracellular domain (ECD) of 161P2F10B (amino acids 46-875) (human, UniProt O14638 46-875); assay: SPR, MAb captured on CM5 chip, recombinant 161P2F10B 1-100 nM injected
T1 construct: also called recombinant 161P2F10B; Tag5-161P2F10B-ECD
Description: Briefly, each purified human MAb is captured onto a CM5 sensor chip surface. On average approximately 150 RUs of each MAb is captured in every cycle.

[2] = target: T2, mouse 161P2F10B expressed on 293T cells (mouse, UniProt Q6DYE8 1-874); assay: FACS: 293T-mouse 161P2F10B cells (open line) vs 293T-neo cells (filled), MAb 2 µg/mL, anti-hIgG-PE
T2 construct: whole, on cells; also called murine 161P2F10B; mouse 161P2F10B ortholog
T2 sequence (Q6DYE8 whole entry): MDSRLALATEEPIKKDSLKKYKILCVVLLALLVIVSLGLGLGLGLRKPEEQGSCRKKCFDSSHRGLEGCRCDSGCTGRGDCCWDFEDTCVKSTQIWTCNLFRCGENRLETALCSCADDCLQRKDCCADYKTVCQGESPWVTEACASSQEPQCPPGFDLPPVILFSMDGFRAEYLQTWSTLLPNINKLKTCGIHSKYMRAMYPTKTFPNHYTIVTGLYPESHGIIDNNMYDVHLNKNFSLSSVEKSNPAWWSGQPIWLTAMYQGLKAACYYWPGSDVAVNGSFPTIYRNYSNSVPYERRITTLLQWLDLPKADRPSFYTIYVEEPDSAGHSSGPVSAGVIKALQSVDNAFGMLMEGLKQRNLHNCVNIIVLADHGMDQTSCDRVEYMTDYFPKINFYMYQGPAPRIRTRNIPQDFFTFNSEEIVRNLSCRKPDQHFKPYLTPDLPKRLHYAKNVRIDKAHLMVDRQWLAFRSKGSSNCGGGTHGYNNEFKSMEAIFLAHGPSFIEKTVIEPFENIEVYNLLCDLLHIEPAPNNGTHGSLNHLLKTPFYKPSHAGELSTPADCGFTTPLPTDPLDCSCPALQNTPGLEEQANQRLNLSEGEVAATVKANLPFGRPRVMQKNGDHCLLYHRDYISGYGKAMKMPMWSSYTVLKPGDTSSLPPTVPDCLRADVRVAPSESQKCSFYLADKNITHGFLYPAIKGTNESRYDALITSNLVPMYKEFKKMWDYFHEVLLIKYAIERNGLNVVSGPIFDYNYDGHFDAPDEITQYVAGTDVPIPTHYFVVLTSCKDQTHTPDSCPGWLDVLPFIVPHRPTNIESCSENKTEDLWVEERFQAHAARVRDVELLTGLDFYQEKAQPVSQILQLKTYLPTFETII
Protocol: Cross reactivity of human MAbs on mouse 161P2F10B. […] Antibodies bound on the cells were detected using anti-hIgG-PE and analyzed on FACS. Data were analyzed using CellQuest Pro software. The solid purple line is data from negative control cells. The green line is from 161P2F10B-positive cells.

Row | Kd [1] [nM] | binding result [2] | Binder
1 | 9 |  | H16-7.200 (antibody, V domains shown, Entries include the leader (VL: part of it) and a portion of the constant region; also called HA16-7.200) VH: QVQLQESGPGLVKPSQTLSLTCTVSGGSITSGDYYWSWIRQHPGKGLEWFGFIYYSGSAYYNPSLKSRITISVDTSKNQFSLKLSSVTAADTAVYYCARERNYGGNSFDYWGQGTLVTVSS VL: not shown
2 |  | binds | H16-7.8 (antibody, V domains shown, Entries include the leader and a portion of the constant region) VH: QVQLQESGPGLVKPSQTLSLTCTVSGGSISSGGYYWSWIRQHPGKGLEWIGIIYYSGSTYYNPSLKSRVTISVDTSKNQFSLKLNSVTAADTAVFYCARVAIVTTIPGGMDVWGQGTTVTVSS VL: EIVLTQSPDFQSVTPKEKVTITCRASQSIGISLHWYQQKPDQSPKLLIKYASQSFSGVPSRFSGSGSGTDFTLTINSLEAEDAATYYCHQSRSFPWTFGQGTKVEIKR
